Each block holds one binder with its values, some of them ahead of it. Ends that are not written are not given here.
Key:
[1] = target: T1, 可溶性ヒトgp130受容体 (soluble human gp130 receptor, extracellular region of SEQ ID NO 1 with six histidines) (human, UniProt P40189 23-619); assay: SPR, Biacore T200, gp130 on CM5 (4023 RU), COS1 supernatant as analyte, off-rate screening
T1 construct: Secreted from CHO DG44 cells and purified on HisTrap; no cleavage site is stated; also called 可溶性ヒトgp130受容体タンパク質; ヒト可溶性gp130受容体
T1 sequence: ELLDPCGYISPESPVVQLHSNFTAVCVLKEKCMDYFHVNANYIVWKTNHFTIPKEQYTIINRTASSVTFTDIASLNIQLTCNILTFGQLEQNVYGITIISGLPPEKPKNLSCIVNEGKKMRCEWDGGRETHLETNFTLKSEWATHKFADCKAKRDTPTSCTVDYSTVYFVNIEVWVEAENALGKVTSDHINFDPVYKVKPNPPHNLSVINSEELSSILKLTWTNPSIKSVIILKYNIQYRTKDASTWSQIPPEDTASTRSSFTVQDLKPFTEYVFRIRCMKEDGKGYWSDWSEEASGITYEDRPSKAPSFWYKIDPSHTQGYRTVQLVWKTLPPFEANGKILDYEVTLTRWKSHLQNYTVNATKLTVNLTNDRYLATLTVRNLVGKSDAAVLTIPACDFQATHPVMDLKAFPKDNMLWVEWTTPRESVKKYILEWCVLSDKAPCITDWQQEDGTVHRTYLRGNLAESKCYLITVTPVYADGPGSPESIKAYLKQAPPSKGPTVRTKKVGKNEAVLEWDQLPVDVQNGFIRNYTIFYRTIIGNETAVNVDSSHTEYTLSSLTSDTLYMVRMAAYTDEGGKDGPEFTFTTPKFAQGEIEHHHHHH

[2] = target: T1, 可溶性ヒトgp130受容体 (soluble human gp130 …); assay: SPR, Biacore T200, gp130 on CM5, antibody as analyte
[3] = target: T1, 可溶性ヒトgp130受容体 (soluble human gp130 …); assay: ELISA, immobilised soluble human gp130, COS1 supernatant, anti-human antibody-HRP
[4] = target: T1, 可溶性ヒトgp130受容体 (soluble human gp130 …); assay: SPR, Biacore T200, gp130 amine-coupled on CM5 (266 RU), antibody as analyte
[5] = target: T1, 可溶性ヒトgp130受容体 (soluble human gp130 …); assay: SPR, Biacore T200, gp130 amine-coupled on CM5, antibody as analyte
[6] = target: T2, SEQ ID NO 128 (15-residue oligopeptide of human gp130) (human, also: linker added for immobilisation); assay: peptide microarray, antibody at 10 ug/mL, fluorescence
T2 construct: also called 配列番号128
T2 peptide: DLKPFTEYVFRIRCM

[7] = target: T3, SEQ ID NO 110 (15-residue oligopeptide of human gp130) (human, also: linker added for immobilisation); assay: as above
T3 construct: also called 配列番号110
T3 peptide: VIILKYNIQYRTKDA

[8] = target: T4, SEQ ID NO 108 (15-residue oligopeptide of human gp130) (human, also: linker added for immobilisation); assay: as above
T4 construct: also called 配列番号108
T4 peptide: SIKSVIILKYNIQYR

[9] = target: T5, SEQ ID NO 127 (15-residue oligopeptide of human gp130) (human, also: linker added for immobilisation); assay: as above
T5 construct: also called 配列番号127
T5 peptide: VQDLKPFTEYVFRIR

[10] = target: T6, SEQ ID NO 109 (15-residue oligopeptide of human gp130) (human, also: linker added for immobilisation); assay: as above
T6 construct: also called 配列番号109
T6 peptide: KSVIILKYNIQYRTK

B1: ヒト化抗体A (H鎖 pFU-AH2, L鎖 AL−4F1) (antibody, V domains shown)
VH: QVQLQQPGAELVQPGTSVRLSCKASGYTFTDYNMDWVKQRPGQGLEWIGDINSHSGGIIYNQKFKDKATLTVDKSSSTAYMQLSSLTSEDSAVYYCTRTYYVYGHFFDYWGQGTLVTVSA
VL: DIQMTQSPSSLSASVGDRVTITCNVSSSVTSMYWYQQKQGKSPQLLVYLTSNLASGVPSRFSGSGSGTQFSLKINNLQPEDFGSYYCQQWSTNPLTFGQGTKLDLKR
notes: also called AL-L4F1 with AH2
binding result [1]: binds

B5: ヒト化抗体A AH7−AL4 (antibody, V domains shown)
VH: EVQLVQSGAEVKKPGATVKISCKASGYTFTDYNMDWVRQAPGQGLEWIGDINSHSGGIIYNQKFKDWVTMTRDTSINTAYMELRLRSDDTAVYYCARTYYVYGHFFDYWGQGTLVTVSA
VL: DIQMTQSPSSLSASVGDRVTITCNVSSSVTSMYWYQQKQGKSPQLLVYLTSNLASGVPSRFSGSGSGTDFTLTISSLQPEDFATYYCQQWSTNPLTFGQGTKVEIK
notes: VH on human IgG1 constant region (pFUSEss-CHIg-hG1), VL on human kappa constant region (pFUSE2ss-CLIg-hk); also called AH7-AL4
binding result [3]: binds

B6: ヒト化抗体A AH7−AL8 (antibody, V domains shown)
VH: EVQLVQSGAEVKKPGATVKISCKASGYTFTDYNMDWVRQAPGQGLEWIGDINSHSGGIIYNQKFKDWVTMTRDTSINTAYMELRLRSDDTAVYYCARTYYVYGHFFDYWGQGTLVTVSA
VL: ELVLTQSPGTLSLSAGERATLSCNVSSSVTSMYWYQQKPGKAPKLLIYLTSNLASGAPSRFSGSGSGTDFTLTISSLQPDDFATYYCQQWSTNPLTFGGGTKLEIK
notes: VH on human IgG1 constant region (pFUSEss-CHIg-hG1), VL on human kappa constant region (pFUSE2ss-CLIg-hk); also called AH7-AL8
binding result [3]: binds

B7: ヒト化抗体A AH7−AL7 (antibody, V domains shown)
VH: EVQLVQSGAEVKKPGATVKISCKASGYTFTDYNMDWVRQAPGQGLEWIGDINSHSGGIIYNQKFKDWVTMTRDTSINTAYMELRLRSDDTAVYYCARTYYVYGHFFDYWGQGTLVTVSA
VL: DIQMTQSPSTLSASIGDRVTITCNVSSSVTSMYWFQQRPGQAPKVLIYLTSNLASGVPSRFSGSGSGTDFTFTISSLQPEDIATYYCQQWSTNPLTFGGGTKVDIK
notes: VH on human IgG1 constant region (pFUSEss-CHIg-hG1), VL on human kappa constant region (pFUSE2ss-CLIg-hk); also called AH7-AL7
binding result [3]: binds

B8: ヒト化抗体A AH7−AL2 (antibody, V domains shown)
VH: EVQLVQSGAEVKKPGATVKISCKASGYTFTDYNMDWVRQAPGQGLEWIGDINSHSGGIIYNQKFKDWVTMTRDTSINTAYMELRLRSDDTAVYYCARTYYVYGHFFDYWGQGTLVTVSA
VL: DIQMTQSPSSLSASVGDRVTITCNVSSSVTSMYWYQQKQGKSPQLLVYLTSNLASGVPSRFSGSGSGTQFSLKINNLQPEDFGSYYCQQWSTNPLTFGAGTKLDLK
notes: VH on human IgG1 constant region (pFUSEss-CHIg-hG1), VL on human kappa constant region (pFUSE2ss-CLIg-hk); also called AH7-AL2
binding result [3]: binds

B9: ヒト化抗体A AH8−AL4 (antibody, V domains shown)
VH: EVQLVQSGAEVKKPGASVKVSCKASGYTFTDYNMDWVRQAPGKGLEWVGDINSHSGGIIYNQKFKDRVTITADRSTSTVYMELSGLRSEDTAVYYCARTYYVYGHFFDYWGKGTLVTVSS
VL: DIQMTQSPSSLSASVGDRVTITCNVSSSVTSMYWYQQKQGKSPQLLVYLTSNLASGVPSRFSGSGSGTDFTLTISSLQPEDFATYYCQQWSTNPLTFGQGTKVEIK
notes: VH on human IgG1 constant region (pFUSEss-CHIg-hG1), VL on human kappa constant region (pFUSE2ss-CLIg-hk); also called AH8-AL4
binding result [3]: binds

B10: ヒト化抗体A AH7−AL6 (antibody, V domains shown)
VH: EVQLVQSGAEVKKPGATVKISCKASGYTFTDYNMDWVRQAPGQGLEWIGDINSHSGGIIYNQKFKDWVTMTRDTSINTAYMELRLRSDDTAVYYCARTYYVYGHFFDYWGQGTLVTVSA
VL: EIVLTQSPATLSLSPGERATLSCNVSSSVTSMYWYQQKPGQAPRLLIYLTSNLASGIPDRFSGSGSGTDFTLTISRLEPEDFAVYYCQQWSTNPLTFGQGTKVEIK
notes: VH on human IgG1 constant region (pFUSEss-CHIg-hG1), VL on human kappa constant region (pFUSE2ss-CLIg-hk); also called AH7-AL6
binding result [3]: binds

B13: ヒト化抗体A AH7−AL5 (antibody, V domains shown)
VH: EVQLVQSGAEVKKPGATVKISCKASGYTFTDYNMDWVRQAPGQGLEWIGDINSHSGGIIYNQKFKDWVTMTRDTSINTAYMELRLRSDDTAVYYCARTYYVYGHFFDYWGQGTLVTVSA
VL: DIQMTQSPASLSASVGETVTITCNVSSSVTSMYWYQQKPGKAPKLLIYLTSNLASGVPARFSGSGSGTEFTLTISSLQPDDFATYYCQQWSTNPLTFGAGTKLDLK
notes: VH on human IgG1 constant region (pFUSEss-CHIg-hG1), VL on human kappa constant region (pFUSE2ss-CLIg-hk); also called AH7-AL5
binding result [3]: binds

Other lines, results leading:

Kd [2]: 0.991 nM | koff [2]: 0.000209 s⁻¹ | kon [2]: 211000 M⁻¹ s⁻¹
B2: ヒト化抗体AH2−2L6E6 (antibody, human IgG1, kappa, V domains shown)
VH: QVQLQQPGAELVQPGTSVRLSCKASGYTFTDYNMDWVKQRPGQGLEWIGDINSHSGGIIYNQKFKDKATLTVDKSSSTAYMQLSSLTSEDSAVYYCARTYYVYGHFFDYWGQGTLVTVSA
VL: ELVLTQSPGTLSLSAGERATLSCNVSSSVTSMYWYQQKPGKAPKLLIYLTSNLASGVPSRFSGSGSGTDYTFTISSLQPEDIATYYCQQWSTNPLTFGQGTKVEIKR

Kd [2]: 1.3 nM | koff [2]: 0.000202 s⁻¹ | kon [2]: 155000 M⁻¹ s⁻¹
B3: ヒト化抗体AH2−2L14A10 (antibody, human IgG1, kappa, V domains shown)
VH: QVQLQQPGAELVQPGTSVRLSCKASGYTFTDYNMDWVKQRPGQGLEWIGDINSHSGGIIYNQKFKDKATLTVDKSSSTAYMQLSSLTSEDSAVYYCARTYYVYGHFFDYWGQGTLVTVSA
VL: DIQMTQSPSTLSASIGDRVTITCNVSSSVTSMYWYQQKPGKAPKLLIYLTSNLASGVPSRFSGSGSGTDFTLTISSLQPEDFATYYCQQWSTNPLTFGQGTKLEIKR

Kd [2]: 1.98 nM | koff [2]: 0.000221 s⁻¹ | kon [2]: 111000 M⁻¹ s⁻¹
B4: ヒト化抗体AH2−2AL4F1 (antibody, human IgG1, kappa, V domains shown)
VH: QVQLQQPGAELVQPGTSVRLSCKASGYTFTDYNMDWVKQRPGQGLEWIGDINSHSGGIIYNQKFKDKATLTVDKSSSTAYMQLSSLTSEDSAVYYCARTYYVYGHFFDYWGQGTLVTVSA
VL: DIQMTQSPSSLSASVGDRVTITCNVSSSVTSMYWYQQKQGKSPQLLVYLTSNLASGVPSRFSGSGSGTQFSLKINNLQPEDFGSYYCQQWSTNPLTFGQGTKLDLKR
notes: also called AH2−2L4F1

Kd [4]: 3.8 nM | koff [4]: 0.000268 s⁻¹ | kon [4]: 70600 M⁻¹ s⁻¹
B11: ヒト化抗体AH2−AL3 (antibody, V domains shown)
VH: QVQLQQPGAELVQPGTSVRLSCKASGYTFTDYNMDWVKQRPGQGLEWIGDINSHSGGIIYNQKFKDKATLTVDKSSSTAYMQLSSLTSEDSAVYYCTRTYYVYGHFFDYWGQGTLVTVSA
VL: DIQMTQSPSTLSASVGDRVTITCNVSSSVTSMYWYQQKPGKAPKLLIYLTSNLASGVPARFSGSGSGTEFTLTISSLQPDDFATYYCQQWSTNPLTFGQGTKVEVK
notes: VH on human IgG1 constant region (pFUSEss-CHIg-hG1), VL on human kappa constant region (pFUSE2ss-CLIg-hk); also called AH2-AL3

Kd [4]: 4.61 nM | koff [4]: 0.000289 s⁻¹ | kon [4]: 62700 M⁻¹ s⁻¹
B12: ヒト化抗体AH2−AL4 (antibody, V domains shown)
VH: QVQLQQPGAELVQPGTSVRLSCKASGYTFTDYNMDWVKQRPGQGLEWIGDINSHSGGIIYNQKFKDKATLTVDKSSSTAYMQLSSLTSEDSAVYYCTRTYYVYGHFFDYWGQGTLVTVSA
VL: DIQMTQSPSSLSASVGDRVTITCNVSSSVTSMYWYQQKQGKSPQLLVYLTSNLASGVPSRFSGSGSGTDFTLTISSLQPEDFATYYCQQWSTNPLTFGQGTKVEIK
notes: VH on human IgG1 constant region (pFUSEss-CHIg-hG1), VL on human kappa constant region (pFUSE2ss-CLIg-hk); also called AH2-AL4

Kd [5]: 0.667 nM | koff [5]: 0.000116 s⁻¹ | kon [5]: 174000 M⁻¹ s⁻¹ | binding result [6]: binds | binding result [7]: binds | binding result [8]: binds | binding result [9]: binds | binding result [10]: binds
B14: 抗体A (antibody A, mouse anti-human gp130 monoclonal antibody) (antibody, mouse IgG1, kappa, V domains shown)
VH: EVLLQQSGPELVKPGASVKIPCKASGYTFTDYNMDWVKQSHGKSLEWIGDINSHSGGIIYNQKFKDKAILTVDKSSSTAYMELRSLTSEDTAVYYCARTYYVYGHFFDYWGQGTTLTVSS
VL: QSVLTQSPAFISASPGEKVTMTCNVSSSVTSMYWYQQKPGSSPKPWIYLTSNLASGVPPRFSGSGSGTSYSLTISSLEAEDAATYYCQQWSTNPLTFGAGTKLELKR
notes: Mouse IgG1, kappa; also called マウス抗体A; ヒト化前の抗体A(マウス抗体)

binding result [3]: binds
B15: ヒト化抗体A AH9−AL7 (antibody, V domains shown)
VH: EVQLVESGGGLVQPGGSLRLSCKASGYTFTDYNMDWVRQAPGKGLEWVGDINSHSGGIIYNQKFKDRFTISADTSKNTAYLQMNSLRAEDTAVYYCARTYYVYGHFFDYWGQGTLVTVSS
VL: DIQMTQSPSTLSASIGDRVTITCNVSSSVTSMYWFQQRPGQAPKVLIYLTSNLASGVPSRFSGSGSGTDFTFTISSLQPEDIATYYCQQWSTNPLTFGGGTKVDIK
notes: VH on human IgG1 constant region (pFUSEss-CHIg-hG1), VL on human kappa constant region (pFUSE2ss-CLIg-hk); also called AH9-AL7
